1 molecule from publication PMC11530643 (Communications Biology, 2024) can be followed below.

This test has as its target FOXO4 forkhead domain (FHD; 95–195 a.a.) (human, UniProt P98177 95-195). As to the kind of experiment: NMR paramagnetic relaxation enhancement.

Ends that are not written are not given here. * marks the point of attachment. MTSL = spin label from S-(1-oxyl-2,2,5,5-tetramethyl-2,5-dihydro-1H-pyrrol-3-yl)methyl methanesulfonothioate, attached to the cysteine side chain, CC1(C)C=C(CS*)C(C)(C)N1[O]

Sequence of FOXO4 forkhead domain (FHD; 95–195 a.a.) (P98177 95-195): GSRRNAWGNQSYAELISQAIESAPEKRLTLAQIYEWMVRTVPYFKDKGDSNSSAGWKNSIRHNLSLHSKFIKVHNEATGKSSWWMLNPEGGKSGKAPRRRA

As for DLDLDMYMENLEC(MTSL)DMDNIISDLMDEGEGLDFNFEPDP (domain or fragment, human, UniProt P98177 469-505, looked up) [FOXO4 conserved region 3 (CR3; 469–505 a.a.), MTSL-labelled at C481], the binding result was “binds”.
